Assay [1] has as its target T1, recombinant soluble CD26 (rsCD26 wt) (UniProt P27487 29-766, limits assumed).
T1 construct: extracellular domain; Used free, conjugated with Texas red, or coated on latex beads; also called sCD26-TR; CD26-TR
As to the kind of experiment: confocal microscopy of transfected HEK293 cells.

Assay [2] concerns the target T2, CD26 S630A-GFP on transfected HEK293 cells (UniProt P27487 1-766).
T2 construct: also called DPPIV activity-deleted mutant (S630A); not shown: EGFP of vector pEB6-CAG-EGFP
The assay can be described thus: confocal microscopy of transfected HEK293 cells.

Assay [3] addresses T3, GFP-fused wild type CD26 (CD26 wt-GFP) on transfected HEK293 cells (UniProt P27487 1-766).
T3 construct: also called CD26-EGFP; GFP-CD26 wt; not shown: EGFP of vector pEB6-CAG-EGFP (engineered variant of Aequorea victoria GFP)
As to the kind of experiment: confocal microscopy of transfected HEK293 cells.

Assay [4] has as its target T4, CD26 in J.CD26 cell lysate (Jurkat T cells with stable expression of CD26) (UniProt P27487 1-766).
T4 construct: Whole CD26 from transfected cells, used as lysate in the GST pull-down; also called CD26 transfected Jurkat T cells
The assay can be described thus: GST pull-down from J.CD26 lysate, immunoblot with anti-CD26. (In general: Immunoblotting shows a protein as a band on a membrane.)

Assay [5] concerns the target T5, CD26 on activated T cells (human, UniProt P27487 1-766).
T5 construct: whole, on cells; also called CD26 on T cells
The assay can be described thus: T cell-monocyte conjugates, confocal microscopy.

Assay [6] deals with endogenous Tollip (THP-1 cells, monocytes) (human, UniProt Q9H0E2 2-274). As to the kind of experiment: immunoprecipitation with anti-caveolin-1 pAb from TT-loaded monocytes, immunoblot with anti-Tollip.
Assay [7] deals with T6, IRAK-4 (in TT-loaded monocytes) (human, UniProt Q9NWZ3 1-460).
T6 sequence: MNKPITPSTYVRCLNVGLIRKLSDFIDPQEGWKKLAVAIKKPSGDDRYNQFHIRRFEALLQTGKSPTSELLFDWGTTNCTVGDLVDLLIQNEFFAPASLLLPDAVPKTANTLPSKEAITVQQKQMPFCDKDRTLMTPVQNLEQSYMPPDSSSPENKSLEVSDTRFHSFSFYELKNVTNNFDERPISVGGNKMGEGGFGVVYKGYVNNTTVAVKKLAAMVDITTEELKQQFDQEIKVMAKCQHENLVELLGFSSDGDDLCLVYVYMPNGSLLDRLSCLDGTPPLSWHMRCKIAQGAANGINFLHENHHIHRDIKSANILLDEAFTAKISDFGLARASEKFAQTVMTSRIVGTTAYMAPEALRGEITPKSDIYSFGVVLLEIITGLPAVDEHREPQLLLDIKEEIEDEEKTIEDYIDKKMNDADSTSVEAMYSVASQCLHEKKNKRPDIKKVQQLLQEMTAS
The assay can be described thus: immunoprecipitation with anti-caveolin-1 pAb from TT-loaded monocytes.

The target of assay [8] is MyD88 (in TT-loaded monocytes) (human, UniProt Q99836 1-296). Described as above.
In assay [9] the target is T7, GST-CD26 D2 (residues 267-584) (UniProt P27487 267-584).
T7 construct: range 267-584; Produced in COS-7 cells, on GSH beads; not shown: GST of mammalian vector pEBG
The assay can be described thus: GST pull-down from THP-1 lysate, immunoblot with anti-caveolin-1.

In assay [10] the target is T8, GST-CD26 D1 (residues 507-766) (UniProt P27487 507-766).
T8 construct: Produced in COS-7 cells, on GSH beads; not shown: GST of mammalian vector pEBG
The assay is described as above.

T4 sequence (P27487 whole entry): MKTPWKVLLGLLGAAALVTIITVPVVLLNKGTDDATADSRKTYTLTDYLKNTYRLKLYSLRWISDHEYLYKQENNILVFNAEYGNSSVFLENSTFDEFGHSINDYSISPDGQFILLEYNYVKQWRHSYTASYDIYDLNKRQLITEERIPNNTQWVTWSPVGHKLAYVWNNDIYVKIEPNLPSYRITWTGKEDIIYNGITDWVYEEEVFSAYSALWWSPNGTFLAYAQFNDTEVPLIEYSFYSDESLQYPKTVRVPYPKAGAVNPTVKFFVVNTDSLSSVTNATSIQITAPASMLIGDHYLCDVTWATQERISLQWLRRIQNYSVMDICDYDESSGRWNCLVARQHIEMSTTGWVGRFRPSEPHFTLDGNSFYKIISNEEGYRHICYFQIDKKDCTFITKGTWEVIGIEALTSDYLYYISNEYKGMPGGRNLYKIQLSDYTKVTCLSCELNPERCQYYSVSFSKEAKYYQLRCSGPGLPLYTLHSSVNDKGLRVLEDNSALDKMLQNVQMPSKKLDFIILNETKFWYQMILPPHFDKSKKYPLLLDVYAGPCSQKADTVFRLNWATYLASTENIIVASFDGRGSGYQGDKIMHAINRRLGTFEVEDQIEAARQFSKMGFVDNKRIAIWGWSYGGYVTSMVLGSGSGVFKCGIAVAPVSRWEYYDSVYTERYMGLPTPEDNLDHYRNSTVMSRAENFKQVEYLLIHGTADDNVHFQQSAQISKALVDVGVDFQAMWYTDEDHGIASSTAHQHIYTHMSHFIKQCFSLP
T2 sequence (P27487 whole entry S630A): as the sequence (P27487 whole entry) above, with S630A counted along it
T5 sequence (P27487 whole entry): as the sequence (P27487 whole entry) above
T3 sequence (P27487 whole entry, the tested form may be a part): as the sequence (P27487 whole entry) above
MyD88 (in TT-loaded monocytes), sequence (Q99836 whole entry, the tested form may be a part): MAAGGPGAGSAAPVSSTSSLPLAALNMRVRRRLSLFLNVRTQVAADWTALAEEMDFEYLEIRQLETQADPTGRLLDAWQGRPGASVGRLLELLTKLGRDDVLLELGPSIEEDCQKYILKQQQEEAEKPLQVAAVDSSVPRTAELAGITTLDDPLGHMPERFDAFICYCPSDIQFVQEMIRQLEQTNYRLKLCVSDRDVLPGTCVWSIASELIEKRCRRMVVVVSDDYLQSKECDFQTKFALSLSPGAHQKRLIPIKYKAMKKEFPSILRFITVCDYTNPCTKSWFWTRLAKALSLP
T8 sequence (P27487 507-766): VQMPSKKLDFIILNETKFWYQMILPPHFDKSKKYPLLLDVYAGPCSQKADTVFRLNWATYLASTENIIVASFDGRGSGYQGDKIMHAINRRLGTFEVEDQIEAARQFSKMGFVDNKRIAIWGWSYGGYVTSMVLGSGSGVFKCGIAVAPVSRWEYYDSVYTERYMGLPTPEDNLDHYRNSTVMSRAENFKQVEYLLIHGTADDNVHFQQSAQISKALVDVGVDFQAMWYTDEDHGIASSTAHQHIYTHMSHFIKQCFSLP
T7 sequence (P27487 267-584): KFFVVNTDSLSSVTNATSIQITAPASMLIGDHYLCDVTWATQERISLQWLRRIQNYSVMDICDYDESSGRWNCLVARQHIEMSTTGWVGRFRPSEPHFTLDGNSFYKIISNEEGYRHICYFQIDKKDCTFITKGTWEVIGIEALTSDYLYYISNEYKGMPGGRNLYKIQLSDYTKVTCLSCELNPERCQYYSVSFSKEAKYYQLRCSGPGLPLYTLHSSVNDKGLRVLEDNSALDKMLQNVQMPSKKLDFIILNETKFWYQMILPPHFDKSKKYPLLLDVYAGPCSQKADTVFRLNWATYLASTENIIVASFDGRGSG
T1 sequence (P27487 29-766 limits assumed): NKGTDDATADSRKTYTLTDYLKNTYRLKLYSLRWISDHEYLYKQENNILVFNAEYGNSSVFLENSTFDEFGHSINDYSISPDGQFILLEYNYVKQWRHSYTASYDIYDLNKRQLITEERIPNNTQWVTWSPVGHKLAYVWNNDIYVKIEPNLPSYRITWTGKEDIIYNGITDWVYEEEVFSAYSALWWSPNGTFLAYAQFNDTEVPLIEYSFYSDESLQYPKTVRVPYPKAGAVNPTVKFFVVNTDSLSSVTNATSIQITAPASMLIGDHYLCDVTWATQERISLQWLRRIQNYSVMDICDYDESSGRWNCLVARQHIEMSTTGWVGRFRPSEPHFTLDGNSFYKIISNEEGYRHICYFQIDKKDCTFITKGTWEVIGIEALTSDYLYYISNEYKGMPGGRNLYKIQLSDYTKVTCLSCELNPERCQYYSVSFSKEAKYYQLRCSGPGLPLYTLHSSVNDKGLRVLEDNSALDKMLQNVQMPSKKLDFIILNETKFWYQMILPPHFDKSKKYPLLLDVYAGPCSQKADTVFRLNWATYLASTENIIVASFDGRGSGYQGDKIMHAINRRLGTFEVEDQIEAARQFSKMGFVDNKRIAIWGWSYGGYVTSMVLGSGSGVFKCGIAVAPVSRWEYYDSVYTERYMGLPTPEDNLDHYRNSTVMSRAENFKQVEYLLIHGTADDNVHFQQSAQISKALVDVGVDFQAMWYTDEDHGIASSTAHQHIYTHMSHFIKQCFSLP

B1: GFP-fused full-length caveolin-1 (caveolin-1-GFP) in transfected cells (other, UniProt Q03135 1-178, looked up)
chain: MSGGKYVDSEGHLYTVPIREQGNIYKPNNKAMADELSEKQVYDAHTKEIDLVNRDPKHLNDDVVKIDFEDVIAEPEGTHSFDGIWKASFTTFTVTKYWFYRLLSALFGIPMALIWGIYFAILSFLHIWAVVPCIKSFLIEIQCISRVYSIYVHTVCDPLFEAVGKIFSNVRINLQKEI
notes: Expressed in HEK293 cells (with sCD26-TR) or stably in THP-1 cells (with Tollip); also called caveolin-1-EGFP; GFP-caveolin-1; not shown: EGFP of vector pEB6-CAG-EGFP
Turning to B1, in [1], the binding result is given as “binds”.

B2: Texas red conjugated caveolin-1 (cav-TR) (other, UniProt Q03135 1-178, looked up)
chain: MSGGKYVDSEGHLYTVPIREQGNIYKPNNKAMADELSEKQVYDAHTKEIDLVNRDPKHLNDDVVKIDFEDVIAEPEGTHSFDGIWKASFTTFTVTKYWFYRLLSALFGIPMALIWGIYFAILSFLHIWAVVPCIKSFLIEIQCISRVYSIYVHTVCDPLFEAVGKIFSNVRINLQKEI
modifications: Texas red conjugated
notes: range 1-178; also called caveolin-1 wt recombinant protein
On to B2, for which the figures for the binding result in assay [2] and in assay [3] were “no binding” and “binds”, respectively.

B3: GST-Cav-1 (1-82) (other, UniProt Q03135 1-82, looked up)
chain: MSGGKYVDSEGHLYTVPIREQGNIYKPNNKAMADELSEKQVYDAHTKEIDLVNRDPKHLNDDVVKIDFEDVIAEPEGTHSFD
notes: range 1-82; not shown: GST of vector pGEX6p1
Consider B3, for which, in assay [4], the binding result is recorded as “no binding”.

B4: GST-Cav-1 (102-178) (other, UniProt Q03135 102-178, looked up)
chain: LLSALFGIPMALIWGIYFAILSFLHIWAVVPCIKSFLIEIQCISRVYSIYVHTVCDPLFEAVGKIFSNVRINLQKEI
notes: range 102-178; not shown: GST of vector pGEX6p1
As for B4, the binding result in assay [4] was “no binding”.

B5: caveolin-1 on the cell surface of TT-loaded monocytes (other)
chain: SGGKYVDSEGHLYTVPIREQGNIYKPNNKAMADELSEKQVYDAHTKEIDLVNRDPKHLNDDVVKIDFEDVIAEPEGTHSFDGIWKASFTTFTVTKYWFYRLLSALFGIPMALIWGIYFAILSFLHIWAVVPCIKSFLIEIQCISRVYSIYVHTVCDPLFEAVGKIFSNVRINLQKEI
notes: whole, on cells
Regarding B5, the binding result in assay [5] is on record as “binds”.

B6: endogenous caveolin-1 (THP-1 cell lysate, monocyte lysate) (other, human, UniProt Q03135 2-178, looked up)
chain: SGGKYVDSEGHLYTVPIREQGNIYKPNNKAMADELSEKQVYDAHTKEIDLVNRDPKHLNDDVVKIDFEDVIAEPEGTHSFDGIWKASFTTFTVTKYWFYRLLSALFGIPMALIWGIYFAILSFLHIWAVVPCIKSFLIEIQCISRVYSIYVHTVCDPLFEAVGKIFSNVRINLQKEI
notes: Endogenous whole protein from cell lysates
For the molecule B6, the binding result in [6] is recorded as “binds”; in assay [7], “no binding”; in [8], “no binding”; in assay [9], “no binding”; in assay [10], “no binding”.

The values are drawn from patent publication US20070259824A1 (TOUDAI TLO, published 2007).
